This passage reports Kd, binding result and IC50 results from article PMC8646600 (Advanced Science, 2021).

Test [1] addresses SARS-CoV-2 RBD titrated over immobilised Fabs (construct not stated) (SARS-CoV-2 (ancestral, Wuhan-Hu-1 …, UniProt P0DTC2)). Description: BLI. The following applies: both partners purified.
The target in test [2] is T1, full-length SARS-CoV spike expressed on cells (SARS-CoV, strain , UniProt P59594).
T1 construct: source: HEK293T, transiently transfected, on cells
Nature of the test: flow cytometry on cells. To be noted: one partner purified. (A flow cytometer gives signals particle by particle.)

The target of test [3] is T2, SARS-CoV-2 spike RBD (S-RBD), hFc tag removed by thrombin digestion, biotinylated (SARS-CoV-2, UniProt P0DTC2). Nature of the test: BLI. The following applies: both partners purified.
For test [4], the target named is T2, SARS-CoV-2 spike RBD (S-RBD), hFc tag …. Nature of the test: ELISA. To be noted: both partners purified. On the technique in general: ELISA stands for enzyme-linked immunosorbent assay.

B1: S-E6 Fab (Fab, V domains shown)
VH: QVTLRESGPGLVKPSETLSLTCAVSGGSLSSVNYYWSWIRQHPGKGLEWIGYIYYSGSTNYNPSLKSRVTMSLDTSKNQFSLKLSSVTAADTAVYYCATPGAIMGALHIWGQGTLVTVSS
VL: QAVLTQPSSASSTPGQRVIISCSGSSSNIGSNTVSWYQQVPGAAPKLLIYFDYRRPSGVPDRFSGTRSGTSASLGISGLQSEDEADYYCAAWDDSLSAWVFGRGTKLTVL
As usually defined, the Kd is the concentration at which binding is half-saturated. In turn, B1 came in with a dissociation constant Kd in test [1] of 11.4 nM.

B2: S-E6 full-length human IgG4e1(S228P) antibody (antibody, V domains shown)
VH: QVTLRESGPGLVKPSETLSLTCAVSGGSLSSVNYYWSWIRQHPGKGLEWIGYIYYSGSTNYNPSLKSRVTMSLDTSKNQFSLKLSSVTAADTAVYYCATPGAIMGALHIWGQGTLVTVSS
VL: QAVLTQPSSASSTPGQRVIISCSGSSSNIGSNTVSWYQQVPGAAPKLLIYFDYRRPSGVPDRFSGTRSGTSASLGISGLQSEDEADYYCAAWDDSLSAWVFGRGTKLTVL
notes: also called S-E6 IgG; source: HEK293F, secreted; clarified culture supernatant, and purified (Mabselect)
For the molecule B2, the binding result in test [2] was “no binding”.

B3: S-B8 Fab (Fab, V domains shown)
VH: QVQLVQSGGGLIQPGGSLRLSCAASGFTVSLSHMNWVRQAPGKGLEWVSITYGDGNSDYADSVKGRFTISRDNSKNTLYLQMNSLRAEDTAVYYCAREYYYGMDVWGQGTTVTVSS
VL: not shown
Regarding B3, the Kd in test [1] turned out to be 15.4 nM. This lies in the double-digit nanomolar range.

B4: S-B8 full-length human IgG4e1(S228P) antibody (antibody, V domains shown)
VH: QVQLVQSGGGLIQPGGSLRLSCAASGFTVSLSHMNWVRQAPGKGLEWVSITYGDGNSDYADSVKGRFTISRDNSKNTLYLQMNSLRAEDTAVYYCAREYYYGMDVWGQGTTVTVSS
VL: not shown
notes: also called S-B8 IgG; source: HEK293F, secreted; clarified culture supernatant, and purified (Mabselect)
By IC50 is commonly meant the concentration that inhibits the measured activity by half. A lower IC50 goes with greater potency. In test [3], B4 registered a Kd of 7.79 nM. The molecule further displayed an IC50 in test [4] of 12.9 nM.
